From the supplement of paper PMC9732359
± gives the uncertainty stated by the source.

Experiment: protein stability index of a GFP-peptide fusion (yeast GPS) (PSI 1-4); higher = more stable; sorted into four equal gates, so the index is relative within each strain
Procedure, shortened: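 Yeast carrying a pooled library were grown to mid-log phase in leucine-free medium. Each library plasmid expresses Cherry and has a tiled 17-residue yeast protein peptide fused downstream of GFP. Cells were sorted into four equal gates by GFP/Cherry ratio, and plasmids from each gate were PCR-amplified, Illumina-sequenced and assigned to strains by barcode. Summing, across gates, the read frequency times the gate number gave each peptide's protein stability index.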

| Sequence | protein stability index (doa10∆) | protein stability index (san1∆) | protein stability index (ubr1∆) | protein stability index (pdr5∆) |
| --- | --- | --- | --- | --- |
| AALFRLHKFLTKWGLIN [SWI3] | 2.83 ± 0.22 | 2.94 ± 0.19 | 2.66 ± 0.23 |  |
| ECFISMQSTSPAVKQWD [SWI1] | 2.34 ± 0.083 | 2.4 ± 0.086 | 2.65 ± 0.06 | 2.38 ± 0.058 |
| ARLAILKERAKNISSQL [YGR119C/NUP57] | 2.24 ± 0.079 | 2.51 ± 0.072 | 2.51 ± 0.052 | 2.77 ± 0.069 |
| LKLEYYNLLVKISLHKR [RPN5] | 1.38 ± 0.26 |  | 1.13 ± 0.084 | 1.28 ± 0.26 |
| LCVLDYDNIDIQRGRIL [RPB7] | 1.96 ± 0.1 | 3.08 ± 0.13 | 2.42 ± 0.12 | 1.93 ± 0.1 |
| TLKKNNVAVDIINFGEI [RPN10] | 2.97 ± 0.081 | 3.02 ± 0.1 | 2.74 ± 0.063 | 3.01 ± 0.092 |
| HGKASRQQYYSGVQVGG [SNF6] | 2.43 ± 0.061 | 2.61 ± 0.052 | 2.21 ± 0.05 | 2.8 ± 0.063 |
| KKAEKAARKAEKAKSAG [RPL24A] | 3.34 ± 0.066 | 3.53 ± 0.046 | 3.48 ± 0.055 | 3.32 ± 0.053 |
| LIIIEKKQKLIEEQDKK [ITC1] | 3.12 ± 0.13 | 2.96 ± 0.17 | 2.89 ± 0.084 | 2.9 ± 0.21 |
| VGEMKLLKKKDDPSKVR [YLR335W/NUP2] | 3.29 ± 0.08 | 2.98 ± 0.091 | 2.74 ± 0.16 | 3.32 ± 0.15 |
| DGMDAAHIEKQSLDTIG [RPO21] | 3.36 ± 0.088 | 3.24 ± 0.093 | 3.05 ± 0.083 | 3.29 ± 0.095 |
| FVSRPDRTMLAPMDFAI [FAS1] | 2.68 ± 0.12 | 2.63 ± 0.11 | 2.68 ± 0.11 | 2.82 ± 0.11 |
| NTGDGSISTYKDILNLA [ECM29] | 3.03 ± 0.083 | 3.04 ± 0.081 | 3.09 ± 0.079 | 2.97 ± 0.11 |
| TSRKALEEVSLKWIDTA [RPL3] | 1.67 ± 0.098 | 1.82 ± 0.12 | 1.9 ± 0.088 | 1.89 ± 0.094 |
| YNNRSLLDFNTALKQYE [RPN6] | 3.32 ± 0.097 | 3.15 ± 0.067 | 3.13 ± 0.099 | 3.04 ± 0.084 |
| LPKVRIRTRRAAELLDK [DIS3] | 1.78 ± 0.096 | 1.3 ± 0.17 | 1.28 ± 0.072 | 1.48 ± 0.088 |
| DDSTKFQLVNDVMDELI [SIR3] | 3.29 ± 0.15 | 3.47 ± 0.1 | 3.39 ± 0.086 | 3.37 ± 0.15 |
| IFSQTTNSTYNPASATD [YJL039C/NUP192] | 2.83 ± 0.054 | 2.46 ± 0.054 | 2.63 ± 0.046 | 2.69 ± 0.071 |
| GYDKKKNKPELYQIDYL [PRE1] | 3.04 ± 0.086 | 3.02 ± 0.066 | 3.08 ± 0.09 | 2.91 ± 0.098 |
| LSIRLTNQLKSLKGLQS [RPN8] | 1.48 ± 0.17 | 2.62 ± 0.19 | 1.24 ± 0.079 | 1.49 ± 0.16 |
| LCAGANNPKIQTKDSVK [IRR1] | 3.29 ± 0.1 | 3.13 ± 0.11 | 3.15 ± 0.057 | 2.99 ± 0.1 |
| ALERNWPIVNSKVYFNN [RPN12] | 1.93 ± 0.08 | 1.38 ± 0.12 | 1.9 ± 0.087 | 1.7 ± 0.072 |
| IADELMKLDDSSKTRNV [ITC1] | 2.61 ± 0.072 | 2.69 ± 0.072 | 2.78 ± 0.08 | 2.09 ± 0.12 |
| QDVAAKCKEVGITAVHV [RPS14B] | 2.44 ± 0.059 | 2.8 ± 0.065 | 2.18 ± 0.037 | 2.7 ± 0.068 |
| KVPQQAAGKRISHIEKR [SMC1] | 3.04 ± 0.11 | 2.97 ± 0.095 | 3.15 ± 0.12 | 3.14 ± 0.12 |
| KAKVEEMNNIIAASRRH [RPL36A] | 2.85 ± 0.084 | 3.19 ± 0.068 | 3.13 ± 0.072 | 3.25 ± 0.075 |

| Sequence | protein stability index (doa10∆) | protein stability index (san1∆) | protein stability index (ubr1∆) | protein stability index (pdr5∆) |
| --- | --- | --- | --- | --- |
| RTQFGGGKSVGFGLVYN [RPS24A] | 2.96 ± 0.065 | 3.27 ± 0.047 | 2.91 ± 0.055 | 2.82 ± 0.05 |
| VPVRSFKGHSHIVQDCT [ASC1] | 2.5 ± 0.073 | 2.91 ± 0.081 | 2.83 ± 0.049 | 3.11 ± 0.064 |
| KIDSHVVLSFSGLNADS [PRE6] | 1.8 ± 0.062 | 2.48 ± 0.073 | 2.19 ± 0.054 | 1.72 ± 0.069 |
| ADVLSILAMTYSENGKH [RPN1] | 1.64 ± 0.066 | 1.45 ± 0.11 | 1.36 ± 0.052 | 1.9 ± 0.1 |
| TRDVEPENLQVTSEKYP [BRR2] | 2.75 ± 0.1 |  | 3.13 ± 0.11 | 3.35 ± 0.18 |
| APIGKHYVVLDTNVVLQ [DIS3] | 2.93 ± 0.13 | 2.04 ± 0.16 | 2.31 ± 0.12 | 2.81 ± 0.14 |
| DFISPELIIDKVTCSSN [MED1] | 1.69 ± 0.1 | 1.82 ± 0.22 | 1.37 ± 0.09 | 1.75 ± 0.099 |
| KTEYVLNDLNHLLVQLQ [REC8] |  |  | 3.02 ± 0.094 | 3.02 ± 0.25 |
| LTVSIKIALMNIPKPLN [RGR1] | 1.19 ± 0.044 | 1.54 ± 0.059 | 1.66 ± 0.032 | 1.43 ± 0.057 |
| VFLSNLVETCLNDLVES [BRR2] | 1.41 ± 0.05 | 1.57 ± 0.11 | 1.89 ± 0.039 | 1.98 ± 0.04 |
| DNVDDIGEFNVSMYQNS [YDL088C/ASM4] | 3.41 ± 0.23 | 2.94 ± 0.22 | 3.19 ± 0.23 | 3.05 ± 0.28 |
| MLPGSSNGGGKVKPIRG [RPO31] | 3 ± 0.073 | 3.15 ± 0.076 | 3.07 ± 0.068 | 3.36 ± 0.13 |
| QQQQTSPPPQTHQSPPP [SNF5] | 2.883 ± 0.018 | 2.88 ± 0.016 | 2.901 ± 0.014 | 2.878 ± 0.016 |
| QMMQQAQQKLKQNPGLM [SRP54] | 2.83 ± 0.08 | 3.12 ± 0.055 | 3.119 ± 0.031 | 3.07 ± 0.082 |
| AARKAANKEKRAIILER [RPL7A] | 1.19 ± 0.051 | 1.14 ± 0.078 | 1.27 ± 0.14 | 1.37 ± 0.058 |
| TASVEKAEFSKEMTLQK [YIL149C/MLP2] | 3.25 ± 0.15 | 3.3 ± 0.14 | 3.22 ± 0.13 | 3.44 ± 0.14 |
| HNGRDKIQFHIHFADVA [RGR1] | 1.68 ± 0.051 | 1.43 ± 0.079 | 1.84 ± 0.043 | 1.79 ± 0.049 |
| DHKFPIRENKVTYSRVS [BRN1] | 2.75 ± 0.13 | 3.01 ± 0.097 | 2.66 ± 0.087 | 2.9 ± 0.11 |
| SNEDVMMTGAEQDPYSN [RPB3] | 3.09 ± 0.092 | 3.19 ± 0.085 | 3.12 ± 0.073 | 3.09 ± 0.079 |
| ITRFGLSKMRDSVLQLA [RPO31] | 3.32 ± 0.14 | 3.17 ± 0.08 | 3.44 ± 0.15 | 2.96 ± 0.14 |
| DNTARVIFDASIKDTQN [BRN1] | 2.1 ± 0.078 | 2.42 ± 0.1 | 2.68 ± 0.048 | 2.06 ± 0.064 |
| NLLLSASRDKTLISWKL [ASC1] | 2.59 ± 0.071 | 3.21 ± 0.05 | 2.2 ± 0.069 | 2.79 ± 0.06 |
| GGFTNLTSQAPQTTQMF [YDL088C/ASM4] | 3.35 ± 0.12 | 3.38 ± 0.077 | 3.08 ± 0.068 | 3.09 ± 0.091 |
| KILPTDIQLKNLFPLKP [SRP68] | 2.41 ± 0.059 | 2.55 ± 0.043 | 2.53 ± 0.059 | 2.63 ± 0.046 |
| KDQYVPEVSALDLSRSN [RPS17A] | 2.16 ± 0.14 | 2.02 ± 0.12 | 2.2 ± 0.065 | 2.2 ± 0.1 |
